Test results taken from article PMC7673040.

Tests used:
[1] = target: signal recognition particle (SRP), human, labelled with Cy3B on SRP54 (C47) (human) (UniProt P61011); test: stopped-flow FRET kinetics; as a1, on RNC(ssmt) of different nascent chain lengths, with 300 nM NAC; fit to a constant kon
[2] = target: signal recognition particle (SRP), human, labelled with Cy3B on SRP54 (C47) (human) (UniProt P61011); test: stopped-flow FRET kinetics; as a1, on RNC(ss) of different nascent chain lengths, no NAC; kon against nascent chain length fit to Eq. (18)
[3] = target: signal recognition particle (SRP), human, labelled with Cy3B on SRP54 (C47) (human) (UniProt P61011); test: stopped-flow FRET kinetics; as a1 but on RNC(ssmt2) with 300 nM NAC
[4] = target: signal recognition particle (SRP), human, labelled with Cy3B on SRP54 (C47) (human) (UniProt P61011); test: stopped-flow FRET kinetics; as a1, on RNC(ss) of different nascent chain lengths, with 300 nM NAC; kon against nascent chain length fit to Eq. (18)
[5] = target: signal recognition particle (SRP), human, labelled with Cy3B on SRP54 (C47) (human) (UniProt P61011); test: stopped-flow FRET kinetics; as a1 but on RNC(ssmt) with 300 nM NAC (saturating)
[6] = target: signal recognition particle (SRP), human, labelled with Cy3B on SRP54 (C47) (human) (UniProt P61011); test: stopped-flow FRET kinetics; as a1 but on RNC(ssmt2) with HSW(RRL)
[7] = target: signal recognition particle (SRP), human, labelled with Cy3B on SRP54 (C47) (human) (UniProt P61011); test: stopped-flow FRET kinetics
[8] = target: signal recognition particle (SRP), human, labelled with Cy3B on SRP54 (C47) (human) (UniProt P61011); test: stopped-flow FRET kinetics; as a1 but on RNC(ssmt) with HSW(RRL) (high salt wash from 200 nM rabbit reticulocyte ribosome)
[9] = target: signal recognition particle (SRP), human, labelled with Cy3B on SRP54 (C47) (human) (UniProt P61011); test: stopped-flow FRET kinetics; as a1 but on RNC(ssmt2); no NAC, no HSW
[10] = target: signal recognition particle (SRP), human, labelled with Cy3B on SRP54 (C47) (human) (UniProt P61011); test: stopped-flow FRET kinetics; as a1, on RNC(ssmt) of different nascent chain lengths, no NAC; fit to a constant kon
[11] = target: signal recognition particle (SRP), human, labelled with Cy3B on SRP54 (C47) (human) (UniProt P61011); test: stopped-flow FRET kinetics; as a1 but SRP^Cy3B pre-incubated with 200 nM RNC(ssmt); no NAC, no HSW
[12] = target: ribosome-nascent chain complex bearing the first ~90 amino acids of pPL(ss), labelled with BODIPY-FL on the nascent chain (bovine); test: other fluorescence titration; equilibrium FRET titration: SRP^TMR titrated into 1 nM RNC^BDP; donor emission at 517 nm; fit to Eq. (4); 25 °C, Assay buffer with 1 mg/mL BSA; no NAC
[13] = target: ribosome-nascent chain complex bearing the first ~90 amino acids of pPL(ssmt), labelled with BODIPY-FL on the nascent chain (bovine) (UniProt P01239); test: other fluorescence titration; equilibrium FRET titrations of SRP^TMR into 1 nM RNC^BDP with unlabeled NAC premixed (0-400 nM for RNC(ss), 0-62.5 nM for RNC(ssmt)); global fit to the anti-cooperative co-binding model, Eq. (8); 25 °C, Assay buffer with 1 mg/mL BSA
[14] = target: ribosome-nascent chain complex bearing the first ~90 amino acids of pPL(ss), labelled with BODIPY-FL on the nascent chain (bovine); test: as above

Substance	kon [1]	kon,max (fit of kon against nascent chain length) [2]	kon,min (fit of kon against nascent chain length) [2]	fold lower kon than on RNC(ss) [3]	kon,max (fit of kon against nascent chain length) [4]	kon,min (fit of kon against nascent chain length) [4]	fold lower kon than on RNC(ss) [5]	fold lower kon than on RNC(ss) [6]	kon [7]	fold reduction of kon by HSW(RRL) [8]	fold lower kon than on RNC(ss) [9]	kon [10]	kon [11]	Kd [12]	KD for NAC-bound RNC (α•Kd,SRP) [13]	KD for NAC-bound RNC (α•Kd,SRP) [14]	Kd [14]
soluble SRP receptor SRαβΔTM with the GTPase-deficient mutation SRα R458A, labelled with Atto647n (from UniProt P08240 1-638; Q9Y5M8 1-271) (complex)	13000 M⁻¹ s⁻¹	940000 M⁻¹ s⁻¹	400000 M⁻¹ s⁻¹	100 fold	1.3e+06 M⁻¹ s⁻¹	22000 M⁻¹ s⁻¹	40 fold	100 fold	1e+06 M⁻¹ s⁻¹	20 fold	20 fold	570000 M⁻¹ s⁻¹	500000 M⁻¹ s⁻¹	–	–	–	–
signal recognition particle (SRP), human, labelled with tetramethylrhodamine (TMR) at residue 12 of SRP54 (from UniProt P61011 1-504; P09132 1-144; P49458 1-86; P37108 1-136; Q9UHB9 1-627; O76094 1-671) (complex)	–	–	–	–	–	–	–	–	–	–	–	–	–	0.44 nM	4.5 nM	2.4 nM	0.36 nM
